The test system of data set [1] is HeLa Kyoto. The experiment in a line: solubility change mitosis vs G1/S (difference of NP-40 vs SDS log2 ratios) (log2 ratio difference); higher = more soluble in mitosis.
The test system of data set [2] is HeLa Kyoto. The experiment in a line: solubility in G1/S (NP-40 vs SDS abundance) (log2 ratio); higher = more soluble. The conditions noted are these: cell cycle stage: G1/S.
Data set [3] concerns HeLa Kyoto. Nature of the data set: thermal stability score vs G1/S (z-score of summed log2 fold changes over temperatures); higher = more thermally stable than in G1/S.
The test system of data set [4] is HeLa Kyoto. Nature of the data set: melting temperature (median over replicates), in situ; higher = more thermally stable.
Where [5] appears, read: cell cycle stage: early G1 (4.5 h after nocodazole release).
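For melting temperature (median over replicates), in situ in this document: HeLa Kyoto cells synchronized by double thymidine or nocodazole block, proteins quantified by TMT10plex mass spectrometry, three independent biological replicates.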
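For solubility change mitosis vs G1/S (difference of NP-40 vs SDS log2 ratios) in this document: synchronized HeLa Kyoto cells (double thymidine block for G1/S, nocodazole release for mitosis), protein amounts in NP-40 versus SDS lysates quantified by mass spectrometry, three biological replicates.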
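For solubility in G1/S (NP-40 vs SDS abundance) in this document: HeLa Kyoto cells arrested at G1/S by double thymidine block, proteins quantified by TMT10plex mass spectrometry in mild NP-40 versus SDS extracts, three biological replicates.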
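For thermal stability score vs G1/S (z-score of summed log2 fold changes over temperatures) in this document: synchronized HeLa Kyoto cells, proteins quantified by TMT10plex mass spectrometry, three biological replicates, mitosis taken 0.5 h after nocodazole release, G1/S directly after double thymidine block.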

Consider “MASILLRSCRGRAPARLPPPPRYTVPRGSPGDPAHLSCASTLGLRNCLNVPFGCCTPIHPVYTSSRGDHLGCWALRPECLRIVSRAPWTSTSVGFVAVGPQCLPVRGWHSSRPVRDDSVVEKSLKSLKDKNKKLEEGGPVYSPPAEVVVKKSLGQRVLDELKHYYHGFRLLWIDTKIAARMLWRILNGHSLTRRERRQFLRICADLFRLVPFLVFVVVPFMEFLLPVAVKLFPNMLPSTFETQSLKEERLKKELRVKLELAKFLQDTIEEMALKNKAAKGSATKDFSVFFQKIRETGERPSNEEIMRFSKLFEDELTLDNLTRPQLVALCKLLELQSIGTNNFLRFQLTMRLRSIKADDKLIAEEGVDSLNVKELQAACRARGMRALGVTEDRLRGQLKQWLDLHLHQEIPTSLLILSRAMYLPDTLSPADQLKSTLQTLPEIVAKEAQVKVAEVEGEQVDNKAKLEATLQEEAAIQQEHREKELQKRSEVAKDFEPERVVAAPQRPGTEPQPEMPDTVLQSETLKDTAPVLEGLKEEEITKEEIDILSDACSKLQEQKKSLTKEKEELELLKEDVQDYSEDLQEIKKELSKTGEEKYVEESKASKRLTKRVQQMIGQIDGLISQLEMDQQAGKLAPANGMPTGENVISVAELINAMKQVKHIPESKLTSLAAALDENKDGKVNIDDLVKVIELVDKEDVHISTSQVAEIVATLEKEEKVEEKEKAKEKAEKEVAEVKS [LETM1]”, for which, in data set [1], the “solubility change mitosis (log2)” value was -0.0749. In data set [2], the “solubility in G1/S (log2)” value amounted to 0.088. Besides, the thermal stability score was -0.277 in data set [3] (setting [5]) and -1.56 in data set [3] (cell cycle stage: mitosis). In addition, the results for the melting temperature in data set [4] (cell cycle stage: G1/S) and in data set [4] (cell cycle stage: mitosis) were 52.9 °C and 52.3 °C, respectively.
With “MSKSLKKLVEESREKNQPEVDMSDRGISNMLDVNGLFTLSHITQLVLSHNKLTMVPPNIAELKNLEVLNFFNNQIEELPTQISSLQKLKHLNLGMNRLNTLPRGFGSLPALEVLDLTYNNLSENSLPGNFFYLTTLRALYLSDNDFEILPPDIGKLTKLQILSLRDNDLISLPKEIGELTQLKELHIQGNRLTVLPPELGNLDLTGQKQVFKAENNPWVTPIADQFQLGVSHVFEYIRSETYKYLYGRHMQANPEPPKKNNDKSKKISRKPLAAKNR [RSU1]”, the “solubility change mitosis (log2)” value in data set [1] turned out to be 0.203. Further, the “solubility in G1/S (log2)” value in data set [2] came to 0.389. Moreover, the thermal stability score is -0.646 in data set [3] (setting [5]) and -1.96 in data set [3] (cell cycle stage: mitosis). The melting temperature in data set [4] (cell cycle stage: G1/S) is 50.3 °C; in data set [4] (cell cycle stage: mitosis), 52.9 °C.
As for “MATAVSRPCAGRSRDILWRVLGWRIVASIVWSVLFLPICTTVFIIFSRIDLFHPIQWLSDSFSDLYSSYVIFYFLLLSVVIIIISIFNVEFYAVVPSIPCSRLALIGKIIHPQQLMHSFIHAAMGMVMAWCAAVITQGQYSFLVVPCTGTNSFGSPAAQTCLNEYHLFFLLTGAFMGYSYSLLYFVNNMNYLPFPIIQQYKFLRFRRSLLLLVKHSCVESLFLVRNFCILYYFLGYIPKAWISTAMNLHIDEQVHRPLDTVSGLLNLSLLYHVWLCGVFLLTTWYVSWILFKIYATEAHVFPVQPPFAEGSDECLPKVLNSNPPPIIKYLALQDLMLLSQYSPSRRQEVFSLSQPGGHPHNWTAISRECLNLLNGMTQKLILYQEAAATNGRVSSSYPVEPKKLNSPEETAFQTPKSSQMPRPSVPPLVKTSLFSSKLSTPDVVSPFGTPFGSSVMNRMAGIFDVNTCYGSPQSPQLIRRGPRLWTSASDQQMTEFSNPSPSTSISAEGKTMRQPSVIYSWIQNKREQIKNFLSKRVLIMYFFSKHPEASIQAVFSDAQMHIWALEGLSHLVAASFTEDRFGVVQTTLPAILNTLLTLQEAVDKYFKLPHASSKPPRISGSLVDTSYKTLRFAFRASLKTAIYRITTTFGEHLNAVQASAEHQKRLQQFLEFKE [NDC1]”, in data set [1], the “solubility change mitosis (log2)” value came out at 0.182. Also, in data set [2], the “solubility in G1/S (log2)” value is -0.187. In addition, the values for the thermal stability score in data set [3] (setting [5]) and in data set [3] (cell cycle stage: mitosis) were -4.66 and -7.41, respectively. Besides, the melting temperature in data set [4] (cell cycle stage: G1/S) came to 52.7 °C; in data set [4] (cell cycle stage: mitosis) it was 51.3 °C.
As to UBR5, the “solubility change mitosis (log2)” value in data set [1] was -0.155. For the same substance, the “solubility in G1/S (log2)” value in data set [2] was -0.142. The thermal stability score in data set [3] (setting [5]) amounted to 1.78; in data set [3] (cell cycle stage: mitosis), 5.42. In addition, the melting temperature came to 47.5 °C in data set [4] (cell cycle stage: G1/S) and 49.8 °C in data set [4] (cell cycle stage: mitosis).
Take IMPDH1: the “solubility change mitosis (log2)” value in data set [1] was -0.176. The “solubility in G1/S (log2)” value in data set [2] came to 0.0289. Besides, the thermal stability score amounted to 5.12 in data set [3] (setting [5]) and 3.19 in data set [3] (cell cycle stage: mitosis). In addition, the results for the melting temperature in data set [4] (cell cycle stage: G1/S) and in data set [4] (cell cycle stage: mitosis) were 51.1 °C and 51.6 °C, respectively.
For the substance “MEANWTAFLFQAHEASHHQQQAAQNSLLPLLSSAVEPPDQKPLLPIPITQKPQGAPETLKDAIGIKKEKPKTSFVCTYCSKAFRDSYHLRRHESCHTGIKLVSRPKKTPTTVVPLISTIAGDSSRTSLVSTIAGILSTVTTSSSGTNPSSSASTTAMPVTQSVKKPSKPVKKNHACEMCGKAFRDVYHLNRHKLSHSDEKPFECPICNQRFKRKDRMTYHVRSHEGGITKPYTCSVCGKGFSRPDHLSCHVKHVHSTERPFKCQTCTAAFATKDRLRTHMVRHEGKVSCNICGKLLSAAYITSHLKTHGQSQSINCNTCKQGISKTCMSEETSNQKQQQQQQQQQQQQQQQQQQHVTSWPGKQVETLRLWEEAVKARKKEAANLCQTSTAATTPVTLTTPFSITSSVSSGTMSNPVTVAAAMSMRSPVNVSSAVNITSPMNIGHPVTITSPLSMTSPLTLTTPVNLPTPVTAPVNIAHPVTITSPMNLPTPMTLAAPLNIAMRPVESMPFLPQALPTSPPW [VEZF1]”, the “solubility change mitosis (log2)” value in data set [1] is 0.0342. Also, in data set [2], the “solubility in G1/S (log2)” value stood at 0.142. Moreover, the thermal stability score in data set [3] (setting [5]) is 0.665; in data set [3] (cell cycle stage: mitosis), 0.5. The substance further displayed a melting temperature in data set [4] (cell cycle stage: G1/S) of 55.4 °C.
“MADIDNKEQSELDQDLDDVEEVEEEETGEETKLKARQLTVQMMQNPQILAALQERLDGLVETPTGYIESLPRVVKRRVNALKNLQVKCAQIEAKFYEEVHDLERKYAVLYQPLFDKRFEIINAIYEPTEEECEWKPDEEDEISEELKEKAKIEDEKKDEEKEDPKGIPEFWLTVFKNVDLLSDMVQEHDEPILKHLKDIKVKFSDAGQPMSFVLEFHFEPNEYFTNEVLTKTYRMRSEPDDSDPFSFDGPEIMGCTGCQIDWKKGKNVTLKTIKKKQKHKGRGTVRTVTKTVSNDSFFNFFAPPEVPESGDLDDDAEAILAADFEIGHFLRERIIPRSVLYFTGEAIEDDDDDYDEEGEEADEEGEEEGDEENDPDYDPKKDQNPAECKQQ [NAP1L1]”: the “solubility change mitosis (log2)” value in data set [1] is -0.0741. Further, the “solubility in G1/S (log2)” value in data set [2] is 0.329. Also, the thermal stability score was determined as 2.07 in data set [3] (setting [5]) and 2.03 in data set [3] (cell cycle stage: mitosis). Besides, the melting temperature turned out to be 49.7 °C in data set [4] (cell cycle stage: G1/S) and 50.9 °C in data set [4] (cell cycle stage: mitosis).
As for “MSSSVEQKKGPTRQRKCGFCKSNRDKECGQLLISENQKVAAHHKCMLFSSALVSSHSDNESLGGFSIEDVQKEIKRGTKLMCSLCHCPGATIGCDVKTCHRTYHYHCALHDKAQIREKPSQGIYMVYCRKHKKTAHNSEADLEESFNEHELEPSSPKSKKKSRKGRPRKTNFKGLSEDTRSTSSHGTDEMESSSYRDRSPHRSSPSDTRPKCGFCHVGEEENEARGKLHIFNAKKAAAHYKCMLFSSGTVQLTTTSRAEFGDFDIKTVLQEIKRGKRMKCTLCSQPGATIGCEIKACVKTYHYHCGVQDKAKYIENMSRGIYKLYCKNHSGNDERDEEDEERESKSRGKVEIDQQQLTQQQLNGN [PHF6]”, in data set [1], the “solubility change mitosis (log2)” value was found to be 0.284. Moreover, the “solubility in G1/S (log2)” value in data set [2] is -0.717. For the same substance, the figures for the thermal stability score in data set [3] (setting [5]) and in data set [3] (cell cycle stage: mitosis) were 1.18 and 1.95, respectively. Besides, the melting temperature in data set [4] (cell cycle stage: G1/S) is 48.6 °C; in data set [4] (cell cycle stage: mitosis) it was 50.6 °C.
